Source: the supplement of paper PMC9170038

Experiments:
MS2 coat protein [1] = test: apparent KD of MS2 coat protein; designed switch direction (-1 OFF switch, 1 ON switch): 1; higher = weaker reporter binding; details: Eterna round: R98
Protocol: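 RNA-MaP: designed FMN/MS2 RNA switches (84 nt design region) are transcribed on-chip within common flanks and titrated with SNAP-549-labelled MS2 coat protein (about 1-3000 nM) in 100 mM Tris pH 7.5, 80 mM KCl, 4 mM MgCl2, without or with 200 uM FMN. Median apparent KD per design; activation ratio = KD,OFF / KD,ON.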

MS2 coat protein [2] = test: apparent KD of MS2 coat protein, switch ON state; designed switch direction (-1 OFF switch, 1 ON switch): 1; higher = weaker reporter binding; details: FMN input: 0 or 200 uM; Eterna round: R93 (includes R88 designs)
How it was run: (§1)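 In 100 mM Tris-HCl pH 7.5 with 80 mM KCl and 4 mM MgCl2, and without or with constant ligand, SNAP-549-labelled MS2 coat protein was titrated in twofold steps from 0.7 or 1.5 nM to 3 µM. Per-step times went from 0.8–1.5 h down to 10–20 min. The RNA switches were transcribed on-chip from Illumina sequencing clusters, and apparent KD is the per-design median of normalised cluster binding-curve fits.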

MS2 coat protein [3] = test: apparent KD of MS2 coat protein, switch OFF state (with FMN for OFF switches, without FMN for ON switches); designed switch direction (-1 OFF switch, 1 ON switch): 1; higher = weaker reporter binding; details: FMN input: 0 or 200 uM; Eterna round: R93 (includes R88 designs)
How it was run: as §1

| Sequence | apparent KD of MS2 coat protein (MS2 coat protein [1]; input ligand: FMN 200 uM) | apparent KD of MS2 coat protein (MS2 coat protein [1]; input ligand: none) | apparent KD of MS2 coat protein (MS2 coat protein [2]) | apparent KD of MS2 coat protein (MS2 coat protein [3]) |
| --- | --- | --- | --- | --- |
| AAAUAAAAUAUAGGAUAUGGAAACAUGAGGAUCACCCAUGUAAAAUAAAAUAAAUAAUAAUAUAACCAGAAGGAUAAAAUAAAA [LRO001_SS NG 2] | 40.2 nM | 30.6 nM |  |  |
| AAUAAUCAGGUAGGAUAUGCUCAGGAUAACUGAGCAGAAGGACUAGAAACCUGAGGAUCACCCAGGUAACUGGAAUAAUAAUAA [Same State NG1 - A3C, U17G Submission 6B] | 57.4 nM | 121 nM |  |  |
| AAUAGUGGCGUAGGAUAUCUGCGUACAUGAGGAUCACCCAUGUCUCCCAGCUGCUGAGCUGGGACAGAGAAGGGCGACCGCAUA [Digece] | 76.4 nM | 226 nM |  |  |
| GAACCACAUGAGGAUCACCCAUGUCUAAAUAUGGGAGGAUAUGCACAAAAGGAAAUAACUGCAGAAGGCCUACGAA [62%, Redo, 3] |  |  | 25.7 nM | 135 nM |
| GAAGACAUAGUUCAGGAUAUAGGAAUAGUCACAUGAGGAUCACCCAUGUGCAUUUAUAUGCGCACUUAGAAGGGAGGUAGUUAUA [SameState2 Malc#22] |  |  | 32.2 nM | 26.4 nM |
| GAAGACAUAGUUCAGGAUAUAGGAAUAGUCACAUGAGGAUCACCCAUGUGCAUUUAUAUGCGCGCUUAGAAGGGAGGUAGAUAAU [Mat - Same state - Malcolm Mod - D119] |  |  | 24.5 nM | 21.2 nM |
| GAAGACAUAGUUCAGGAUAUGGUAAUAGUCACAUGAGGAUCACCCAUGUGCAUUUAUAUGCGCGAUCAGAAGGGAGGUAGAUAAG [Mat - Same state - Malcolm Mod - D116] |  |  | 18.6 nM | 18.3 nM |
| GAGGACAUAGUAUAGGAUAUAUGAAUAAUUACAUGAGGAUCACCCAUGUCCAUUUAUAUGGGAACAUAGAAGGGUGGUAGUUGUC [Mat - Same state - Malcolm Mod - D130] |  |  | 73 nM | 200 nM |
| GAUAAACAUGAGGAUCACCCAUGUAGAAAUAUGGGAGGAUAUACGAAGACGAAAGUCAAAGUAGAAGGCCUAAAAG [Mat - Same State 1 - Eli mod - D114] |  |  | 23.9 nM | 52.6 nM |
| GAUAUACAUGAGGAUCACCCAUGUUAGGUGGGUCAAGGAUAUUGAUAUAAAUAAAAAACUCGAGAAGGUGAAUAAA [JR_SS001_Sub020] |  |  | 298 nM | 153 nM |
| GCAAAACAUGAGGAUCACCCAUGUCAACAAAAUCAAGGAUAUGAGCCAGCAAUGCCGGCAUCAGAAGGUGAACCUU [Enqule] |  |  | 53.2 nM | 68.5 nM |
| GGAAAACAUGAGGAUCACCCAUGUGAAAACGUGGGAGGAUAUCGAUGGAAACCAUACUGUCGAGAAGGCCCAUGUC [EteRNA is fun!] |  |  | 18.5 nM | 47.2 nM |
| GGAGUACAUGAGGAUCACCCAUGUUGGAACAAAGUAGGAUAUGUACAAUAUUAAAUAAAAACAGAAGGACUAAGAA [Gold Rush] |  |  | 23.3 nM | 37.1 nM |
| GGCCAACAUGAGGAUCACCCAUGUCGCCAAAAUCGAGGAUAUGGGUGCCAGCUCGGGCAGCCAGAAGGCGACAAAA [Qutiqumais] |  |  | 55.1 nM | 224 nM |
| GGGAAGAAGAGAGAGGAUAUCCAAAGGAAAACAUGAGGAUCACCCAUGUAAAAGGUAGGAAAUUGGGAGAAGGCUCAAAAGAGGG [salish99-ss2-032] |  |  | 29 nM | 39.4 nM |
| GGGACCAGCGUCAAGGAUAUUCAUAUAUAAACAUGAGGAUCACCCAUGUAGGCCAGGAGGCCUUGGGAGAAGGUGAGUUGGCUCG [Xegedibe] |  |  | 40.5 nM | 249 nM |

| Sequence | apparent KD of MS2 coat protein (MS2 coat protein [1]; input ligand: FMN 200 uM) | apparent KD of MS2 coat protein (MS2 coat protein [1]; input ligand: none) | apparent KD of MS2 coat protein (MS2 coat protein [2]) | apparent KD of MS2 coat protein (MS2 coat protein [3]) |
| --- | --- | --- | --- | --- |
| GGGAGGAAGAGAGAGGAUAUCCAAAGGAAAACAUGAGGAUCACCCAUGUAAAAGGUAGGAAAUUGGGAGAAGGCUCAAGAGAAAG [salish99-ss2-054] |  |  | 29.8 nM | 51.6 nM |
| GGGAGGAAGAGAGAGGAUAUCCAAAGGAAAACAUGAGGAUCACCCAUGUAAAAGGUAGGAAAUUGGGAGAAGGCUCAAGAGAGGG [salish99-ss2-051] |  |  | 23.6 nM | 28 nM |
| GGUACAUCUAGUUAGGAUAUCAGGUGUAAGACAUGAGGAUCACCCAUGUCCUAAGAACAGGUAACUGAGAAGGAACAGGGAGUCC [JR_SS002_Sub416] |  |  | 64.6 nM | 133 nM |
| GUAUAUAUAAGACAGGAUAUCCUAAAGUAAACAUGAGGAUCACCCAUGUAAAGAAAGAAACUCAUGGAGAAGGGUCAAUAUAUAC [Mat - Same State 2 - Tesla mod - D82] |  |  | 11.5 nM | 27.1 nM |
| GUGUAUAGAAUCGAGGAUAUCCUGUAAUGCACAUGAGGAUCACCCAUGUAAGAGCGAGAAUAAUGGGAGAAGGCGAGUUAUCGGU [JR_SS002_Sub1710] |  |  | 27.5 nM | 46.1 nM |
| UAAAAACAUGAGGAUCACCCAUGUGAGAACAUGGGAGGAUAUACAAAGACGAAAGUCAAAGUAGAAGGCCUAAAAU [Mat - Same State 1 - Mod - D170] |  |  | 75.1 nM | 15.9 nM |
| UAAAAACAUGAGGAUCACCCAUGUGAGAACAUGGGAGGAUAUACGAAGACGAAAGUCGAAGUAGAAGGCCUAAAAU [Mat - Same State 1 - Mod - D172] |  |  | 145 nM | 39.3 nM |
| UAUAAACAUGAGGAUCACCCAUGUAGAAAUAUGGGAGGAUAUACAAAGACGAAAGUCAAAGUAGAAGGCCUAAUAA [Mat - Same State 1 - Mod - D156] |  |  | 16.6 nM | 89.4 nM |
| UAUAGACAUGAGGAUCACCCAUGUAGAAUUAUGGGAGGAUAUACAAAGACGAGAGUCAGAGUAGAAGGCCUAGGAA [salish99-ss1-152] |  |  | 24 nM | 55.7 nM |
| UCCUUACAUGAGGAUCACCCAUGUCGCAGGAAUCAAGGAUAUGGGUCCGCAAUGCGGAAACCAGAAGGUGACAAAA [Edusquanon] |  |  | 165 nM | 489 nM |
| UGAAAACAUGAGGAUCACCCAUGUAGAAAUAUGGGAGGAUAUACGAAGACGAAAGUCAAAGUAGAAGGCCUAAAUG [Mat - Same State 1 - Eli mod - D110] |  |  | 27.6 nM | 72.1 nM |
| UGAAGACAUGAGGAUCACCCAUGUGGGAUUAUGGGAGGAUAUACAAAGACGAGAGUCAGAGUAGAAGGCCUAGGAG [salish99-ss1-118(!)] |  |  | 39.5 nM | 67.9 nM |
| UGAAGACAUGAGGAUCACCCAUGUGGGAUUAUGGGAGGAUAUACAAAGACGAGAGUCAGAGUAGAAGGCCUAGGAU [salish99-ss1-117(!)] |  |  | 31.4 nM | 57.9 nM |
| UGGAAACAUGAGGAUCACCCAUGUAAAAGGUGGUCAGGAUAUGCGAAAAGAAAAAGAAAAGUAGAAGGGACAAGAA [Mod of Eli's Mod] |  |  | 65.9 nM | 67.8 nM |
| UGGAGACAUGAGGAUCACCCAUGUGAGAAGAGGCGAGGAUAUCGAAAGAAAGAAGAGAAACGAGAAGGCGCGAGUG [salish99-SS1-042] |  |  | 40.3 nM | 46.9 nM |
| UUACAGCACAGGUAGGAUAUGUAGGGUGGUACAUGAGGAUCACCCAUGUAUCCACCCUUCGAAAGGCAGAAGGGCCUGUCGCUGC [Arsora] |  |  | 24.6 nM | 16.8 nM |
